Literature values in PMC2868910.

Molecular target: thrombomodulin (Homo sapiens) (UniProt P07204)

In the case of thrombin (from UniProt P00734), the Kd is listed as 0.5 nM.
